For one test, the system named is B. cenocepacia K56-2. Briefly: Mannose-dependent lectin extraction from bacterial surface (Western blot). On the set-up: species or system Burkholderia cenocepacia. As to conditions: 50 mM D-mannose, 5 min, FLAG-tagged lectins. How it is done: Culture supernatant proteins were precipitated with trichloroacetic acid as described previously The protein concentration was determined by Bradford assay (Bio-Rad) and 4 µg of protein were loaded on a 18% SDS-PAGE gel. After electrophoresis, gels were transferred to nitrocellulose membranes for immunoblot analysis. The membranes were incubated with the 4RA2 monoclonal antibody (Neoclone) cross-reacting with the B. cenocepacia RNA polymerase subunit alpha (cytosolic protein, cell lysis control) and the FLAG M2 monoclonal antibody (Sigma). The Alexa Fluor 680 goat anti-mouse IgG (Molecular Probes) was used as a secondary antibody. Detection was performed using the Odyssey Infrared Imager (LI-COR Biosciences).
Overnight cultures were diluted to an OD600 nm of 0.03 in 50 mL LB and grown at 37°C for 8 h. Cells were then centrifuged at 5000 g for 10 min. The pellet was washed twice with 25 mL of phosphate buffered saline (PBS) and finally resuspended in 1.5 mL PBS. Five hundred µL aliquots were placed into two eppendorf tubes to which 500 µL of PBS or 500 µL of 100 mM D-mannose made in PBS (50 mM final concentration) was added. Samples were gently mixed by inversion and incubated for 5 min at room temperature. Samples were centrifuged at 6000 g for 5 min, supernatants were collected (800 µL) and filter-sterilized using […] filters. […]
(In general: In western blotting, separated proteins are transferred to a membrane and probed.)

The next test deals with BC2L-C-nt. On the set-up: method as in PMID 20152153. As to conditions: cited from earlier work.
Test [1] concerns the target BC2L-C, soluble lectin from Burkholderia cenocepacia (whole protein) (Burkholderia cenocepacia) (UniProt B4EH87). Briefly: SEC-MALS; Superdex 200, 20 mM Tris, 250 mM NaCl, 1 mM CaCl2, pH 7.5; loaded at 4.2 mg/mL BC2L-C, 7.5 mg/mL BC2L-C-nt, 10.7 mg/mL BC2L-C-ct; MALLS with refractometry. (In general: In gel filtration, larger molecules generally elute earlier.)
The target of test [2] is BC2L-C-ct, C-terminal domain of BC2L-C (Burkholderia cenocepacia). Described as above.
For test [3], the target named is BC2L-C-nt, N-terminal TNF-α-like domain of BC2L-C (Burkholderia cenocepacia). The description is as above.
In another test the test system is BEAS-2B cells. Briefly: IL-8 production by respiratory epithelial cells (ELISA). The format is cell-based, human. To be noted: 0.3 µM, 15 h, ELISA of supernatants. How it is done:
BC2L-C and its separate domains were used for the stimulation of the human bronchial cell line BEAS-2B obtained from the American Type Cell Collection (Manassas, VA). Cells were maintained in serial passage in F-12K culture medium supplemented with 10% FCS, 1% penicillin and streptomycin, 1% glutamine and 10 mM HEPES in 75 cm2 culture flasks and seeded at 5×10^4 on 24-well plates 3 days before stimulation. In all experiments, BEAS-2B cells were stimulated during 15 hours with the different agonists in a 300 µL medium. IL-8 concentrations in cell culture supernatants were determined using a Duo-Set ELISA kit. Duo-Set ELISA kit and the recombinant human TNF-α were obtained from R&D Systems (Minneapolis, MN).
On the technique in general: ELISA stands for enzyme-linked immunosorbent assay.

Turning to `OC[C@H]1OC(O)[C@@H](O)[C@@H](O)[C@@H]1O` (stereo partly drawn) [D-Man, D-mannose], the “release of surface-bound lectins into supernatant” value with B. cenocepacia K56-2 is “BC2L-B and -C lectins are released into the supernatant”.
With `C[C@H](O)[C@@H](O)[C@@H](O)[C@H](O)C=O` [fucose], in the test on BC2L-C-nt, the “binding of isolated BC2L-C-nt domain” value was “binds strongly to fucose”.
“BC2L-C, soluble lectin from Burkholderia cenocepacia (whole protein) (from UniProt B4EH87 1-129) (natural protein)”: the stoichiometry N – broadly, the number of molecules, sites or subunits per partner or assembly – in test [1] was 6.
“BC2L-C-ct, C-terminal domain of BC2L-C (domain or fragment)” had a stoichiometry N in test [2] of 2.
Consider “BC2L-C-nt, N-terminal TNF-α-like domain of BC2L-C (domain or fragment)”, for which the stoichiometry N in test [3] was determined as 3.

B1: BC2L-C: soluble hexameric lectin from Burkholderia cenocepacia with fucose- and mannose/heptose-binding domains, recombinant (protein)
chain: MADSQTSSNRAGEFSIPPNTDFRAIFFANAAEQQHIKLFIGDSQEPAAYHKLTTRDGPREATLNSGNGKIRFEVSVNGKPSATDARLAPINGKKSDGSPFTVNFGIVVSEDGHDSDYNDGIVVLQWPIG
B1: the IL-8 production entry in the test with BEAS-2B cells is “markedly increase in IL-8 production”.
